The values below come from the supplement of paper PMC9170038.

The subject of data set [1] is MS2 coat protein. Kind of data set: apparent KD of MS2 coat protein; designed switch direction (-1 OFF switch, 1 ON switch): -1; higher = weaker reporter binding. Particulars: Eterna round: R98. As for the experimental part:
(§1)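 RNA-MaP: designed FMN/MS2 RNA switches (84 nt design region) are transcribed on-chip within common flanks and titrated with SNAP-549-labelled MS2 coat protein (about 1-3000 nM) in 100 mM Tris pH 7.5, 80 mM KCl, 4 mM MgCl2, without or with 200 uM FMN. Median apparent KD per design; activation ratio = KD,OFF / KD,ON.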

Data set [2] concerns MS2 coat protein. Kind of data set: apparent KD of MS2 coat protein; designed switch direction (-1 OFF switch, 1 ON switch): 1; higher = weaker reporter binding. To be noted: Eterna round: R98. As for the experimental part: as §1

Turning to “GGUUGUUACGCAGGAUAUUGCCAACAGGCAGUAGGAUAUCCGAAAGGAGAAGGAUUGCCAACAGGCGAGAAGGGCGGGUUAACC [pwkr exNG2 2xF7 2FMN.10.6]”, the “apparent KD of MS2 coat protein” value with MS2 coat protein [1] (input ligand: FMN 200 uM) was 50.6 nM; in the data set on MS2 coat protein [1] (input ligand: none) it was 33.3 nM.

For “UAUAUAAUAAGAGCUGGAAAACUCACAUGAGGAUCACCCAUGUAGGAUAUCAGCACGAUAAGUGCUGAGAAGGACAACCAGCUC [Denovo 73]”, the “apparent KD of MS2 coat protein” value was 17 nM in the data set with MS2 coat protein [1] (input ligand: FMN 200 uM) and 15.2 nM in the data set on MS2 coat protein [1] (input ligand: none).

“AAAAUAUAGGCAGGAUAUACAUGAAUAUAUAAUAUAAUAUAUAAUAUAACAUGAGGAUCACCCAUGUAGAAGGGCCAUAAUAAA [LRO028_Exclusion NG 2]”: the “apparent KD of MS2 coat protein” value in the data set on MS2 coat protein [1] (input ligand: FMN 200 uM) was found to be 72.7 nM; in the data set on MS2 coat protein [1] (input ligand: none), 43.7 nM.

As to “GCGUAAUUGAUCCUAUUUACCAACAUGAGGAUCACCCAUGUGCAGGAUAUGCUAAAGAUAGAUAAGCAGAAGGGCAAAUACCGC [JR_ExcNG3_Sub003]”, the figures for the “apparent KD of MS2 coat protein” value in the data set with MS2 coat protein [1] (input ligand: FMN 200 uM) and in the data set on MS2 coat protein [1] (input ligand: none) were 252 nM and 67 nM, respectively.

In the case of “GGAUGACAAAGUCAUCCUUAACGAACAUGAGGAUCACCCAUGUAGGAUAUGCUACACAAAGUGUAGCAGAAGGACAUGUGCCUU [Mat - Exclusion NG 3 - JL Mod - D88]”, the figures for the “apparent KD of MS2 coat protein” value in the data set with MS2 coat protein [1] (input ligand: FMN 200 uM) and with MS2 coat protein [1] (input ligand: none) were 294 nM and 32.9 nM, respectively.

As to “AUGCCGUGCAGAGCGCGACGGCGAACAUGAGGAUCACCCAUGUAGGAUAUACUACACAAAGUGUAGUAGAAGGACGUGCAACAA [Ex NG2 #97]”, the “apparent KD of MS2 coat protein” value is 38.1 nM with MS2 coat protein [1] (input ligand: FMN 200 uM) and 29.8 nM in the data set with MS2 coat protein [1] (input ligand: none).

For the sequence “AUGACAGGCAGAGCGCAACGGCGAACAUGAGGAUCACCCAUGUAGGAUAUGCUACACAAAGUGUAGCAGAAGGACAUGCGACGC [Ex NG2 #85]”, the “apparent KD of MS2 coat protein” value stood at 117 nM with MS2 coat protein [1] (input ligand: FMN 200 uM) and 25.7 nM with MS2 coat protein [1] (input ligand: none).

For “GUAUGACAAAGUCAUACCGCUUUGACAUGAGGAUCACCCAUGUAGGAUAUAUUAAUCAAAGAUUAAUAGAAGGACAUGUUUCUG [Ex NG2 #68]”, the “apparent KD of MS2 coat protein” value with MS2 coat protein [1] (input ligand: FMN 200 uM) is 175 nM; in the data set with MS2 coat protein [1] (input ligand: none), 94.6 nM.

Turning to “GCCAUCGUAUGAGGAUAUGGCACCGUUUCGGUGCCAGAAGGCAUGUCUUUUGACAUGAGGAUCACCCAUGUAGUUAAGAUGGCA [Pyrimidine booster 4]”, the “apparent KD of MS2 coat protein” value was 147 nM in the data set with MS2 coat protein [2] (input ligand: FMN 200 uM) and 637 nM in the data set on MS2 coat protein [2] (input ligand: none).

“UCGAAGAAGCAAGGAUAUCAAUAUUAGAAAAGAUAAACAUGAGGAUCACCCAUGUAAAUAUGGAGUGAGAAGGUGCAAUAAUUU [JR_SSNG2_Sub098]”: the “apparent KD of MS2 coat protein” value was determined as 212 nM with MS2 coat protein [2] (input ligand: FMN 200 uM) and 557 nM in the data set with MS2 coat protein [2] (input ligand: none).

As to “UUAUAAAAUAUAGGAUAUGGAAACAUGAGGAUCACCCAUGUAUGAUAAGAUAAAUUAUGAUAUAGCCAGAAGGAUACAAUAUAA [LRO010_SS NG 2]”, the “apparent KD of MS2 coat protein” value in the data set with MS2 coat protein [2] (input ligand: FMN 200 uM) was 35.4 nM; in the data set with MS2 coat protein [2] (input ligand: none), 32.9 nM.

Turning to “GGUCCAUCAUGAGGAUAUGGCACCUUAUUUGUGCCAGAAGGCAUGUCAAUAGACAUGAGGAUCACCCAUGUAAUAAAUUGGACC [EliMod 3 - Jieux - Same State NG 1]”, the “apparent KD of MS2 coat protein” value in the data set with MS2 coat protein [2] (input ligand: FMN 200 uM) amounted to 54.1 nM; in the data set with MS2 coat protein [2] (input ligand: none), 642 nM.

Consider “ACAUGGAAGCGAGGAUAUGCGGCGGAAACGAACGCAGAAGGCGAAAAAAAAACUCGCAAAAACAUGAGGAUCACCCAUGUAAAA [AK-NGROCr2-ExNG1-4]”, for which the “apparent KD of MS2 coat protein” value in the data set with MS2 coat protein [1] (input ligand: FMN 200 uM) was 34.8 nM; in the data set on MS2 coat protein [1] (input ligand: none), 28.5 nM.

On to “CUGGUGAUGUAAGGAUAUGCUGAGGAAUACUCAGCAGAAGGUACAUGAGGAUCACCCAUGUAAAUGAAAGAUAAUAAACACCAG [Excusion NG 1/16-B1]”, for which the “apparent KD of MS2 coat protein” value in the data set on MS2 coat protein [1] (input ligand: FMN 200 uM) amounted to 29.1 nM; in the data set with MS2 coat protein [1] (input ligand: none), 14.5 nM.

With “UUUGGGAGCACAGGAUAUGGCACCUCGACGGCGCCAGAAGGGUGAUUCUGUUGGUGGCCACAUGAGGAUCACCCAUGUGCCUCC [Inerinusce]”, the “apparent KD of MS2 coat protein” value came out at 44.7 nM in the data set on MS2 coat protein [2] (input ligand: FMN 200 uM) and 76 nM with MS2 coat protein [2] (input ligand: none).

“GACGAAUUCUUAGGAUAUCGAGUGGAAUACACUCGAGAAGGAAGAUAUACCUGAGGAUCACCCAGGUAAAACUGGACGUCAAUA [Same State NG1 - A3C, U17G Submission 8D A68U]”: the entries for the “apparent KD of MS2 coat protein” value in the data set with MS2 coat protein [2] (input ligand: FMN 200 uM) and in the data set on MS2 coat protein [2] (input ligand: none) were 46.7 nM and 193 nM, respectively.

For the sequence “AAAACAUGAGGAUCACCCAUGUAAUGAUCGGUUAAUAGAAGUGAGGAUAUGCUUAAAAUAAGGUAGCAGAAGGCACUGGGUACA [JR_SSNG3_Sub041]”, the “apparent KD of MS2 coat protein” value in the data set with MS2 coat protein [2] (input ligand: FMN 200 uM) is 31.3 nM; in the data set with MS2 coat protein [2] (input ligand: none), 28.1 nM.

For the sequence “AAAAUAAAGGCAGGAUAUACAUGAAUAAAUAAAAUAAAAUAAAAUAAAACAUGAGGAUCACCCAUGUAGAAGGGCCAAAAUAAA [LRO021_Exclusion NG 2]”, the “apparent KD of MS2 coat protein” value in the data set with MS2 coat protein [1] (input ligand: FMN 200 uM) turned out to be 178 nM; in the data set with MS2 coat protein [1] (input ligand: none), 71.5 nM.
